What all share (assay): MST
Assay [1] addresses AciKC lyase domain (residues 1–219).
For assay [2], the target named is CurKC lyase domain (residues 1–217) (Thermomonospora curvata DSM43183).
For assay [3], the target named is CurKC kinase domain (residues 218–489) (Thermomonospora curvata DSM43183).
For assay [4], the target named is CurKC leader recognition domain (LRD, residues 222–309), GB1 tag removed (Thermomonospora curvata DSM43183).
Assay [5] concerns the target CurKC lyase-kinase didomain (residues 1–489) (Thermomonospora curvata DSM43183).
The target of assay [6] is CurKC, class III lanthipeptide synthetase from the biosynthesis of curvopeptin (full-length) (Thermomonospora curvata DSM43183).

By Kd is commonly meant the free concentration of one partner at which half of the binding sites on the other are occupied at equilibrium, for simple one-to-one binding. A high value points to weaker binding. On to “AciKC kinase domain (residues 220–495) (domain or fragment)”, for which the Kd turned out to be 43.9 µM in assay [1] and 14.8 µM in assay [2].
With CurA leader peptide, the Kd in assay [3] came to 801 µM; in assay [4] it was 1200 µM; in assay [5], 84 µM; in assay [6], 5.5 µM.
Consider “CurKC kinase domain (residues 218–489) (domain or fragment)”, for which the Kd in assay [1] worked out at 209 µM; in assay [2] it was 170 µM.
In the case of “CurKC leader recognition domain (LRD, residues 222–309), GB1 tag removed (domain or fragment)”, the Kd in assay [2] was 139 µM.

The record behind these values is paper PMC9828337.
